Measurements: paper PMC3456991 (Journal of molecular biology, 2012)
Residue numbers refer to the chain shown, from its start. Names and notes keep the numbering of the source. Where two headings read alike, the source gives them in different places.

B1: Fis1ΔTM-C79S/C87S (domain or fragment, Saccharomyces cerevisiae)
chain: MMTKVDFWPTLKDAYEPLYPQQLEILRQQVVSEGGPTATIQSRFNYAWGLIKSTDVNDERLGVKILTDIYKEAESRRRESLYYLTIGSYKLGEYSMAKRYVDTLFEHERNNKQVGALKSMVEDKIQKE
B2: Fis1ΔTM-3 (E78D/I85T/Y88H) (domain or fragment, Saccharomyces cerevisiae)
chain: B1 chain with E79D, S80C, I86T, S88C, Y89H
B3: Fis1ΔTM (1-127), wild type cytoplasmic domain of yeast Fis1 (domain or fragment, Saccharomyces cerevisiae)
chain: B1 chain with S80C, S88C
B4: Fis1ΔTM-A72P (domain or fragment, Saccharomyces cerevisiae)
chain: B1 chain with A73P, S80C, S88C
B5: Fis1ΔTM (1-126) without a linker or affinity tag, for NMR (domain or fragment, Saccharomyces cerevisiae, UniProt P40515 1-126, looked up)
chain: MTKVDFWPTLKDAYEPLYPQQLEILRQQVVSEGGPTATIQSRFNYAWGLIKSTDVNDERLGVKILTDIYKEAESRRRECLYYLTIGCYKLGEYSMAKRYVDTLFEHERNNKQVGALKSMVEDKIQK

Tests used:
[1] = biological target: the molecule itself; assay: SEC
[2] = biological target: the molecule itself; assay: SEC-MALS
[3] = biological target: the molecule itself; assay: SEC; remark: listed apart in the source
[4] = biological target: the molecule itself; assay: SEC; remark: listed apart in the source
[5] = biological target: the molecule itself; assay: NMR chemical shift comparison of monomer and dimer

Protein	binding result [1]	Kd [4] [µM]	also measured
B1	binds		
B2	binds		
B3		15 ± 3	stoichiometry N [2]: 2; Kd [3]: 0.24 ± 0.08 µM
B4		≥ 3000	
B5			binding result [5]: binds
